Starred links: 1 amine or outer side, 2 acyl side, 3 side chain; linkers in the order of their positions; H or OH if unused. Non-standard residues stand in square brackets, D forms with d. Groups on a side chain read outwards from the residue. No end group written: not given here. *: point of attachment. C18 diacid = O=C(O)CCCCCCCCCCCCCCCCC(=O)*; γGlu = O=C(O)[C@H](CCC(=O)[*:2])N[*:1]; AEEA = NCCOCCOCC(=O)O; Aib = CC(C)(N)C(=O)O
Experiments:
[1] = target: T1, human GLP-1 receptor (human, UniProt P43220 24-463); assay: cell-based or functional assay
[2] = target: T2, human glucagon receptor (human, UniProt P47871 26-477); assay: cell-based or functional assay
[3] = target: T1, human GLP-1 receptor; assay: displacement of [125I]-GLP-1-(7-36)NH2 from BHK membranes with human GLP-1R, SPA, no serum albumin
[4] = target: T2, human glucagon receptor; assay: displacement of [125I]-glucagon from BHK membranes with human glucagon receptor, SPA, no serum albumin

T2 sequence (P47871 26-477): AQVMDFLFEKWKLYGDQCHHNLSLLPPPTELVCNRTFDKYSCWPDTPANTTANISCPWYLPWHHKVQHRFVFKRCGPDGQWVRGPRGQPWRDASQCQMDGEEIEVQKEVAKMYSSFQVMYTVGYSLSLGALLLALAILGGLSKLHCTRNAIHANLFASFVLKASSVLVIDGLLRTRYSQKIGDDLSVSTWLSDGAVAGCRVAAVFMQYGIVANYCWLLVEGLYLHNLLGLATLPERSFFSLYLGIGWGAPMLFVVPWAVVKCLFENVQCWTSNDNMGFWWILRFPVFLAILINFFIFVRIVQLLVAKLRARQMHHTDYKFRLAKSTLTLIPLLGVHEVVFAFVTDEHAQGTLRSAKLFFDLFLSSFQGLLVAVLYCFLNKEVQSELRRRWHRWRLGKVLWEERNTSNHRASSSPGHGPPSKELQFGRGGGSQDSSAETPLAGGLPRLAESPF

GLP-1R EC50 (pM) [Assay (I)(a)], CRE luciferase reporter, BHK cells [1] | GlucagonR EC50 (pM), [Assay (I)(b)], CRE luciferase reporter, BHK cells [2] | IC50 [3] | IC50 [4] | Binder
3 pM | 31 pM | 0.1 nM | 8.7 nM | H[Aib]QGTFTSDLSKYLDARRAREFVQWLINK([γGlu-γGlu-AEEA-AEEA-γGlu-C18 diacid])-NH2 (N-terminus assumed; SMILES CC[C@H](C)[C@H](NC(=O)[C@H](CC(C)C)NC(=O)[C@H](Cc1c[nH]c2ccccc12)NC(=O)[C@H](CCC(N)=O)NC(=O)[C@@H](NC(=O)[C@H](Cc1ccccc1)NC(=O)[C@H](CCC(=O)O)NC(=O)[C@H](CCCNC(=N)N)NC(=O)[C@H](C)NC(=O)[C@H](CCCNC(=N)N)NC(=O)[C@H](CCCNC(=N)N)NC(=O)[C@H](C)NC(=O)[C@H](CC(=O)O)NC(=O)[C@H](CC(C)C)NC(=O)[C@H](Cc1ccc(O)cc1)NC(=O)[C@H](CCCCN)NC(=O)[C@H](CO)NC(=O)[C@H](CC(C)C)NC(=O)[C@H](CC(=O)O)NC(=O)[C@H](CO)NC(=O)[C@@H](NC(=O)[C@H](Cc1ccccc1)NC(=O)[C@@H](NC(=O)CNC(=O)[C@H](CCC(N)=O)NC(=O)C(C)(C)NC(=O)[C@@H](N)Cc1c[nH]cn1)[C@@H](C)O)[C@@H](C)O)C(C)C)C(=O)N[C@@H](CC(N)=O)C(=O)N[C@@H](CCCCNC(=O)CC[C@H](NC(=O)CC[C@H](NC(=O)COCCOCCNC(=O)COCCOCCNC(=O)CC[C@H](NC(=O)CCCCCCCCCCCCCCCCC(=O)O)C(=O)O)C(=O)O)C(=O)O)C(N)=O, also called Chem. 21; Chem 21)
3 pM | 36 pM | 0.2 nM | 8.6 nM | H[Aib]QGTFTSDLSKYLDARRAREFVQWLISK([γGlu-γGlu-AEEA-AEEA-γGlu-C18 diacid])-NH2 (N-terminus assumed; SMILES CC[C@H](C)[C@H](NC(=O)[C@H](CC(C)C)NC(=O)[C@H](Cc1c[nH]c2ccccc12)NC(=O)[C@H](CCC(N)=O)NC(=O)[C@@H](NC(=O)[C@H](Cc1ccccc1)NC(=O)[C@H](CCC(=O)O)NC(=O)[C@H](CCCNC(=N)N)NC(=O)[C@H](C)NC(=O)[C@H](CCCNC(=N)N)NC(=O)[C@H](CCCNC(=N)N)NC(=O)[C@H](C)NC(=O)[C@H](CC(=O)O)NC(=O)[C@H](CC(C)C)NC(=O)[C@H](Cc1ccc(O)cc1)NC(=O)[C@H](CCCCN)NC(=O)[C@H](CO)NC(=O)[C@H](CC(C)C)NC(=O)[C@H](CC(=O)O)NC(=O)[C@H](CO)NC(=O)[C@@H](NC(=O)[C@H](Cc1ccccc1)NC(=O)[C@@H](NC(=O)CNC(=O)[C@H](CCC(N)=O)NC(=O)C(C)(C)NC(=O)[C@@H](N)Cc1c[nH]cn1)[C@@H](C)O)[C@@H](C)O)C(C)C)C(=O)N[C@@H](CO)C(=O)N[C@@H](CCCCNC(=O)CC[C@H](NC(=O)CC[C@H](NC(=O)COCCOCCNC(=O)COCCOCCNC(=O)CC[C@H](NC(=O)CCCCCCCCCCCCCCCCC(=O)O)C(=O)O)C(=O)O)C(=O)O)C(N)=O, also called Chem. 28; Chem 28)
3 pM | 66 pM | 0.2 nM | 19.1 nM | H[Aib]QGTFTSDLSKYLDARRARDFVQWLISK([γGlu-γGlu-AEEA-AEEA-γGlu-C18 diacid])-NH2 (N-terminus assumed; SMILES CC[C@H](C)[C@H](NC(=O)[C@H](CC(C)C)NC(=O)[C@H](Cc1c[nH]c2ccccc12)NC(=O)[C@H](CCC(N)=O)NC(=O)[C@@H](NC(=O)[C@H](Cc1ccccc1)NC(=O)[C@H](CC(=O)O)NC(=O)[C@H](CCCNC(=N)N)NC(=O)[C@H](C)NC(=O)[C@H](CCCNC(=N)N)NC(=O)[C@H](CCCNC(=N)N)NC(=O)[C@H](C)NC(=O)[C@H](CC(=O)O)NC(=O)[C@H](CC(C)C)NC(=O)[C@H](Cc1ccc(O)cc1)NC(=O)[C@H](CCCCN)NC(=O)[C@H](CO)NC(=O)[C@H](CC(C)C)NC(=O)[C@H](CC(=O)O)NC(=O)[C@H](CO)NC(=O)[C@@H](NC(=O)[C@H](Cc1ccccc1)NC(=O)[C@@H](NC(=O)CNC(=O)[C@H](CCC(N)=O)NC(=O)C(C)(C)NC(=O)[C@@H](N)Cc1c[nH]cn1)[C@@H](C)O)[C@@H](C)O)C(C)C)C(=O)N[C@@H](CO)C(=O)N[C@@H](CCCCNC(=O)CC[C@H](NC(=O)CC[C@H](NC(=O)COCCOCCNC(=O)COCCOCCNC(=O)CC[C@H](NC(=O)CCCCCCCCCCCCCCCCC(=O)O)C(=O)O)C(=O)O)C(=O)O)C(N)=O, also called Chem. 27; Chem 27)
3 pM | 55 pM | 0.4 nM | 14 nM | H[Aib]QGTFTSDLSKYLDLRRARDFVAWLINK([γGlu-γGlu-AEEA-AEEA-γGlu-C18 diacid])-NH2 (N-terminus assumed; SMILES CC[C@H](C)[C@H](NC(=O)[C@H](CC(C)C)NC(=O)[C@H](Cc1c[nH]c2ccccc12)NC(=O)[C@H](C)NC(=O)[C@@H](NC(=O)[C@H](Cc1ccccc1)NC(=O)[C@H](CC(=O)O)NC(=O)[C@H](CCCNC(=N)N)NC(=O)[C@H](C)NC(=O)[C@H](CCCNC(=N)N)NC(=O)[C@H](CCCNC(=N)N)NC(=O)[C@H](CC(C)C)NC(=O)[C@H](CC(=O)O)NC(=O)[C@H](CC(C)C)NC(=O)[C@H](Cc1ccc(O)cc1)NC(=O)[C@H](CCCCN)NC(=O)[C@H](CO)NC(=O)[C@H](CC(C)C)NC(=O)[C@H](CC(=O)O)NC(=O)[C@H](CO)NC(=O)[C@@H](NC(=O)[C@H](Cc1ccccc1)NC(=O)[C@@H](NC(=O)CNC(=O)[C@H](CCC(N)=O)NC(=O)C(C)(C)NC(=O)[C@@H](N)Cc1c[nH]cn1)[C@@H](C)O)[C@@H](C)O)C(C)C)C(=O)N[C@@H](CC(N)=O)C(=O)N[C@@H](CCCCNC(=O)CC[C@H](NC(=O)CC[C@H](NC(=O)COCCOCCNC(=O)COCCOCCNC(=O)CC[C@H](NC(=O)CCCCCCCCCCCCCCCCC(=O)O)C(=O)O)C(=O)O)C(=O)O)C(N)=O)
